Reference: the supplement of paper PMC11908140

B1: library; numbered along this chain (parent)
chain: MRKPRAAVGSGHRKQAASQEGRQKHAKNNSQAKPSACDGLARQPEEVVLQASVSSYHLFRDVAEVTAFRGSLLSWYDQEKRDLPWRRRAEDEMDLDRRAYAVWVSEVMLQQTQVATVINYYTGWMQKWPTLQDLASASLEEVNQLWAGLGYYSRGRRLQEGARKVVEELGGHMPRTAETLQQLLPGVGRYTAGAIASIAFGQATGVVDGNVARVLCRVRAIGADPSSTLVSQQLWGLAQQLVDPARPGDFNQAAMELGATVCTPQRPLCSQCPVESLCRARQRVEQEQLLASGSLSGSPDVEECAPNTGQCHLCLPPSEPWDQTLGVVNFPRKASRKPPREESSATCVLEQPGALGAQILLVQRPNSGLLAGLWEFPSVTWEPSEQLQRKALLQELQRWAGPLPATHLRHLGEVVHTFSHIKLTYQVYGLALEGQTPVTTVPPGARWLTQEEFHTAAVSTAMKKVFRVYQGQQPGTCMGSKRSQVSSPCSRKKPRMGQQVLDNFFRSHISTDAHSLNSAAQ

Variants of: B1
Assay: 8OG:A repair function score (normalized; synonymous = 0, nonsense = -1) (normalized log-likelihood score); higher = more repair activity (WT-like)
Details: with 8OG:A DNA repair reporter (GFP) in HEK-293 MUTYH KO cells
Experimental: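 Saturation mutagenesis (NNN codon scan) of the MUTYH cDNA (521-aa nuclear isoform NM_001048174.1 / NP_001041639), stably expressed under doxycycline induction in HEK-293 MUTYH knockout cells. Cells were co-transfected with an 8OG:A-bearing GFP repair reporter plus mCherry and sorted 72 h later into GFP+ and GFP− bins, three replicates per tile. The Rosace log2 enrichment (GFP+ vs GFP−) was converted per tile to a normalized function score with synonymous variants centered at 0 and nonsense variants (codons 1-471) at -1; low-abundance variants were removed.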

Variant | 8OG:A repair function score
Q363T | -0.255
E90G | 0.00689
K80L | -0.278
C269R | -1.15
E46F | 0.0911
V242C | -0.39
R189L | -0.316
P44E | -0.0552
T460P | -0.347
G444C | -0.242
R175G | -0.166
V102P | -1.21
Y425H | -0.0609
H420A | -0.146
V468S | -0.18
P442V | -0.0512
C262H | -1.1
S71G | -0.000985
F453K | -0.87
E287N | -0.0363
S226L | -0.314
Q159M | 0.0724
E46C | 0.0656
G326S | -0.307

Variant | 8OG:A repair function score
R157E | -0.665
N329Q | -0.0134
D133I | -0.308
I195G | -0.964
R266K | 0.00702
V218H | -0.41
V65N | -0.208
T380F | 0.194
R156Y | -0.337
E92C | -0.0208
R364Q | -0.529
T66F | -0.00932
P442F | -0.0534
Q43A | 0.0603
T66A | -0.0148
P365G | -0.137
D249V | -0.579
Q265H | 0.0203
P316S | -0.123
R157T | -0.216
L215Y | -0.0538
A305G | -0.0138
S367W | 0.00054
S296L | -0.0062

Variant | 8OG:A repair function score
F200W | -0.182
R506S | 0.00235
P273V | -0.419
A162E | -1.14
F418P | -0.719
L109F | -0.916
R219M | -0.571
Q271D | -0.0548
P264N | -0.0423
C314Y | -0.572
D512N | -0.0198
K80P | -0.105
G201Q | 0.039
T308R | 0.0174
Q252I | -0.942
R506Q | -0.052
S367D | -0.0756
Q394K | -0.158
A253N | -1.01
W103I | -1.17
S378I | -0.143
Q111T | -0.764
F59C | -0.367
E168V | -0.0341

Variant | 8OG:A repair function score
I198L | -0.391
G150M | -1.44
Q252H | -0.873
N307C | -0.119
A357T | -0.0252
A6C | -0.117
P338I | -0.0572
T191P | -0.924
S344N | 0.0332
V65I | -0.000598
L360S | -1.32
G429F | 0.209
A391R | -0.136
G356P | -0.0644
E178I | -0.0162
P443F | 0.179
A334K | 0.00736
T449D | -0.211
P404S | -0.587
P437D | -0.128
E413K | 0.103
Y428Q | -1.2
L315N | -0.209
H508D | -0.000798

Variant | 8OG:A repair function score
V47Q | -0.0401
T204W | -0.109
T449F | -0.363
V414R | -0.625
P185M | -0.282
T406D | 0.483
S294L | -0.0244
Q323G | -0.0264
D77F | -0.0355
A431V | -0.0559
L73D | -1.01
R88T | 0.00666
A431I | 0.0332
V207E | -1.03
S153C | -0.074
Q113P | -0.116
S483A | 0.00092
L139F | -0.0535
V485A | -0.00727
Y469G | -0.451
S153M | -0.237
S138N | -0.128
W381S | -0.174
G356L | -0.2

Variant | 8OG:A repair function score
T260E | -0.154
A456W | -0.531
N329L | -0.301
Q126R | 0.0261
Q351T | -0.0645
M255N | -1.03
K337V | -0.116
D94T | -0.178
P494N | 0.0224
D502T | 0.00564
S226A | 0.0017
E303M | 0.000479
E46T | 0.134
V301F | -0.175
E275T | 0.0286
S419C | -0.434
W146M | -0.182
Y120T | 0.0371
Q181C | -0.121
I198H | -0.963
P306V | -0.015
R266I | -0.164
P174Y | -0.958
R213N | -0.963

Variant | 8OG:A repair function score
K493G | 0.0135
S276F | -0.0215
A445I | -0.318
R86I | -0.915
R217Y | -1.01
L49I | -0.0224
S459E | -1.11
P377H | -1.31
D224N | -0.918
Q181W | -0.337
A400Q | -0.0826
L313H | -0.299
R332P | -0.191
S74I | -0.0694
L349Q | -1.83
A194T | -0.422
V53K | -0.0093
S344H | 0.0531
S518E | 0.0194
P338M | 0.0756
W399C | 0.313
V415K | -0.327
P247N | -1
